From patent US20130302346A1 (LEXICON PHARMACEUTICALS, published 2013)

T1: Human NOTUM D141S (human, UniProt Q6P988 20-496)
T1 construct: Point mutant made by transient transfection
T1 sequence: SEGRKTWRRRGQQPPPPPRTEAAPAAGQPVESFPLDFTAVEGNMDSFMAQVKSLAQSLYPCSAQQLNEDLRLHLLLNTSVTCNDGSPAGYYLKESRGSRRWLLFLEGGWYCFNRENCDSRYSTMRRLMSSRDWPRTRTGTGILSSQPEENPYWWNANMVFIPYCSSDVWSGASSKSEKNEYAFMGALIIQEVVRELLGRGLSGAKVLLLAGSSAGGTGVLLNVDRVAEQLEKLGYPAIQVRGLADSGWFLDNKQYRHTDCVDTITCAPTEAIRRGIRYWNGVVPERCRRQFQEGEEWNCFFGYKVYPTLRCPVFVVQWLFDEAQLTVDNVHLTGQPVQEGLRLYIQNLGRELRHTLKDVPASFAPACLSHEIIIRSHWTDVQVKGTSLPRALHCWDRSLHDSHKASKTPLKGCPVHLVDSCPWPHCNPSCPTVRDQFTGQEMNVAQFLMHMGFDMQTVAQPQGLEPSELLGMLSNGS

T2: Guinea pig NOTUM (guinea pig, UniProt Q6P988 21-496 (human entry))
T2 construct: Expressed by transient transfection
T2 chain: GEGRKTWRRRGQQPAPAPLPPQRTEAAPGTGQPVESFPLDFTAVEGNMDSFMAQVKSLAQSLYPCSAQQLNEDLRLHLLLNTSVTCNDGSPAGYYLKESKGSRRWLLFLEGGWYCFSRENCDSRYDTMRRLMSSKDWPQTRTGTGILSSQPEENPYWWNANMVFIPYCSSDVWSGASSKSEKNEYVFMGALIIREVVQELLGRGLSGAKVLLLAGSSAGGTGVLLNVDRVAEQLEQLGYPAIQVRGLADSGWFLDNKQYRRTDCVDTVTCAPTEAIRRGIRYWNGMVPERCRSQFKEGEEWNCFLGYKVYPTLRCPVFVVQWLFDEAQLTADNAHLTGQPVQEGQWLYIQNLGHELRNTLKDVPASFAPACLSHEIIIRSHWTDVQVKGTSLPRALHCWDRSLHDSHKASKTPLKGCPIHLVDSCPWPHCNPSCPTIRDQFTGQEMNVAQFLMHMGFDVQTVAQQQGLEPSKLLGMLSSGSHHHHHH

T3: Human NOTUM R144A/R145A (human, UniProt Q6P988 20-496)
T3 construct: Alanine mutant, expressed and secreted after transient transfection
T3 sequence: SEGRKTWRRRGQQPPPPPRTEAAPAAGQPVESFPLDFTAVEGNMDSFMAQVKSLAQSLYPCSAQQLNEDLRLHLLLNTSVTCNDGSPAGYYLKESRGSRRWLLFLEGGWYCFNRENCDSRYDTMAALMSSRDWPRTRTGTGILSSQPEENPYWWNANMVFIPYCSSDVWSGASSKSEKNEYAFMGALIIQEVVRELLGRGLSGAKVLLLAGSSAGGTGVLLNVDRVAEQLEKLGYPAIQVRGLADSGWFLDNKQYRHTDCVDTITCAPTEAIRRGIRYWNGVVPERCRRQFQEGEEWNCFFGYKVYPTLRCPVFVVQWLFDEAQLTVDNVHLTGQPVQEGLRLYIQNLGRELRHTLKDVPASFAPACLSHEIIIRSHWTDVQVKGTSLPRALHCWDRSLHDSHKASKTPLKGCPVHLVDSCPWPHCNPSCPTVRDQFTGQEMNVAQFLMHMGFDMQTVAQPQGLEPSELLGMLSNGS

T4: Human NOTUM (human, UniProt Q6P988 20-496)
T4 construct: also called human notum pectinacetylesterase; recombinant human NOTUM
T4 sequence: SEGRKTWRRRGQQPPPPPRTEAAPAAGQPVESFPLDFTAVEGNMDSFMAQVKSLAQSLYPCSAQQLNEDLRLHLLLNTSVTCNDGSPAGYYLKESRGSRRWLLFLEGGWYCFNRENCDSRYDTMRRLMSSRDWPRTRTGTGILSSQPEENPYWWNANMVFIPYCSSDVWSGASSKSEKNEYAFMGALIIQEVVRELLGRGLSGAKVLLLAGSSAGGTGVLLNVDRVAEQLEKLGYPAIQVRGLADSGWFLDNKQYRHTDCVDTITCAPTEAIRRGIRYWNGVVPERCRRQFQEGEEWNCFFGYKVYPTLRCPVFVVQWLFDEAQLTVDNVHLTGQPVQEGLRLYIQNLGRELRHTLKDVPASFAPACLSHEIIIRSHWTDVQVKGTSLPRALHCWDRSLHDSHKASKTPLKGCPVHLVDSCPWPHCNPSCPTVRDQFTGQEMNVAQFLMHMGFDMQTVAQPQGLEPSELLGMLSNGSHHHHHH


What was measured:
Human NOTUM D141S = biological target: T1, Human NOTUM D141S; assay: ELISA
Guinea pig NOTUM = biological target: T2, Guinea pig NOTUM; assay: ELISA
Human NOTUM R144A/R145A = biological target: T3, Human NOTUM R144A/R145A; assay: ELISA
Human NOTUM = biological target: T4, Human NOTUM; assay: Biacore 3000
Procedure: Binding affinities of certain anti-NOTUM MAbs was determined using a Biacore 3000. In order to obtain meaningful affinity values for binding to multimeric […] NOTUM protein, antibody FAb fragments were generated by digestion of whole IgG with the protease Ficin, followed by removal of undigested IgG and Fc fragments by protein A affinity chromatography. Affinity values for binding of FAbs and whole IgG to human NOTUM corresponded, and their affinity values were in the single to low double digit nM range, as shown in Table 3.

Row | binding result (Human NOTUM D141S) | binding result (Guinea pig NOTUM) | binding result (Human NOTUM R144A/R145A) | Kd (Human NOTUM) | kon (Human NOTUM) | Binder
1 | no binding | binds | no binding | 1.42 nM | 257000 M⁻¹ s⁻¹ | MAb 1.802 (antibody, V domains shown, Mouse monoclonal antibody from Campaign 1 (raised against human NOTUM), IgG1) VH: EVQLVESGGGLVKPGGSLKLSCAASGFTFSDYGMHWFRQAPEKGLEWVAYISSGSRTVYYADTVKGRFTISRDNAKNTLSLQMTSLRSEDTAMYYCARKHYNGGYFDVWGTGTTVTVSS VL: DIVLTQSPASLAVSLGQRATISCRASKIVSTSGYSYMHWYQQKPGQPPKLLIYLASNLESGVPARFSGSGSGTDFTLNIHPVEEEDAATYYCQHSRELPPTFGSGTKLEIKR
2 | no binding | binds | no binding | – | – | MAb 1.815 (antibody, IgG1, V domains shown, Mouse monoclonal antibody from Campaign 1, IgG1) VH: DVQLLESGGGLVQPGGSRKLSCAASGFTFSDFGMHWVRQAPEKGLEWVAYSSSGGTTVYYADTVKGRLTLSRDNSKNTLFLEMTSLRSEDTAMYYCARASYDGGYFDCWGQGTSLTVSS VL: DIVLTQSPASLAVSLGQRATISCRASKSVSTSGYSYIHWYQQKPGQPPKLLIYLASDLESGVPARFSGSGSGAAFTLNIHPVEEEDAATYYCHHSRELPFTFGSGTKLEIKR
3 | no binding | binds | no binding | – | – | MAb 1.846 (antibody, IgG2b, V domains shown, Mouse monoclonal antibody from Campaign 1, IgG2b) VH: EVQLVESGGDLVKPGGSLKLSCAASGFTFSDYGMHWLRQAPEKGLEWVAYISSGSTTLSYANTMKGRFTISRDNAKKTLSLQMTSLRSEDTAIYYCARKNYNGGYFDVWGTGTTVTVSS VL: DIVLTQSPASLVVSLGQRATISCRASKSVSESGYSYMHWYQQKPGQPPKLLIYLASNLESGVPARFSGSGSGTDFTLNIHPVEEGDATTYYCQHSRVLPPTFGSGTKLEIKR
